Test results published in paper PMC7367684, “Mechanical inhibition of isolated Vo from V/A-ATPase for proton conductance” (eLife, 2020).
One block for each binder: values may come before it.

B1: d subunit of the Thermus thermophilus V/A-ATPase (natural protein)
chain: MADDFAYLNARVRVRRGTLLKESFFQEALDLSFADFLRLLSETVYGGELAGQGLPDVDRAVLRTQAKLVGDLPRLVTGEAREAVRLLLLRNDLHNLQALLRAKATGRPFEEVLLLPGTLREEVWRQAYEAQDPAGMAQVLAVPGHPLARALRAVLRETQDLARVEALLAKRFFEDVAKAAKGLDQPALRDYLALEVDAENLRTAFKLQGSGLAPDAFFLKGGRFVDRVRFARLMEGDYAVLDELSGTPFSGLSGVRDLKALERGLRCVLLKEAKKGVQDPLGVGLVLAYVKEREWEAVRLRLLARRAYFGLPRAQVEEEVVCP
notes: d subunit (subunit C) of the V/A-ATPase of Thermus thermophilus, strain HB8
B2: D subunit of the Thermus thermophilus V/A-ATPase (natural protein)
chain: MSQVSPTRMNLLQRRGQLRLAQKGVDLLKKKRDALVAEFFGLVREAMEARKALDQAAKEAYAALLLAQAFDGPEVVAGAALGVPPLEGVEAEVENVWGSKVPRLKATFPDGALLSPVGTPAYTLEASRAFRRYAEALIRVANTETRLKKIGEEIKKTTRRVNALEQVVIPGIRAQIRFIQQVLEQREREDTFRLKRIKGKIEAREAEEEGGRPNPQVEIGAGL
notes: D subunit (central shaft) of the V/A-ATPase of Thermus thermophilus, strain HB8; holds the short helix called screw driver helix (SDH); also called subunit D; axis subunit of the V1 domain; source: T. thermophilus membranes, V/A-ATPase purified (Ni-NTA by the His3 tag on the c-subunit, Resource Q), in nanodiscs

Legend:
[1] = biological target: T1, a subunit of the Thermus thermophilus V/A-ATPase (Thermus thermophilus, UniProt Q5SIT6 1-652); test: cryo-EM structure; isolated Vo (His3 tag on the c subunit) in nanodiscs (MSP1E3D1, DMPC by the methods), 20 mM Tris-HCl pH 8.0, 150 mM NaCl; CRYOARM200, K2 Summit; 3.9 Å; conditions: both partners purified
T1 construct: a subunit (subunit I) of the V/A-ATPase of Thermus thermophilus, strain HB8; soluble arm domain asol and C-terminal hydrophobic domain aCT (membrane domain printed as A327-E637); also called asol (soluble arm domain); aCT (membrane-embedded C-terminal region)
T1 sequence: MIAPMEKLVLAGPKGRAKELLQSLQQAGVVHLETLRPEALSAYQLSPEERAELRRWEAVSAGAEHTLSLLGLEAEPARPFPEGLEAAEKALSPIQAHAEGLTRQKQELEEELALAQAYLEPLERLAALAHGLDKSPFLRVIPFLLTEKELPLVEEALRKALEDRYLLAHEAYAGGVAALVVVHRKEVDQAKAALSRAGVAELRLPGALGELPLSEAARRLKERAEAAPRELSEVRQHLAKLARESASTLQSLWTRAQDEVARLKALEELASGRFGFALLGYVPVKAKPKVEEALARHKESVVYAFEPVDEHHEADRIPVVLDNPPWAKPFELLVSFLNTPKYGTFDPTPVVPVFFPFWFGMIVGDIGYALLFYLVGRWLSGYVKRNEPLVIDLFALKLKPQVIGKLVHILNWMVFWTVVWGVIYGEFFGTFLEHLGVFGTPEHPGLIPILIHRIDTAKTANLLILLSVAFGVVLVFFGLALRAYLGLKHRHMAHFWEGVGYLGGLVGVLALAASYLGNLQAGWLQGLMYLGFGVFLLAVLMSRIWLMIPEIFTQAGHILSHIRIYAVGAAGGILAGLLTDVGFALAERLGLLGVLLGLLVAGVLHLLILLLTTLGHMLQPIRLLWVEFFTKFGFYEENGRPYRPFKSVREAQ

[2] = biological target: B1; test: cryo-EM structure; holo V/A-ATPase (His3 tag on the c subunit) in nanodiscs (MSP1E3D1, POPC), 20 mM Tris-HCl pH 8.0, 150 mM NaCl, 2 mM MgCl2; Titan Krios, Falcon II; rotational state 1, 3.6 Å overall, 3.5 Å focused map of A3B3DFE2G2dasol; conditions: both partners purified
[3] = biological target: the molecule itself; test: cryo-EM structure; isolated Vo (His3 tag on the c subunit) in nanodiscs (MSP1E3D1, DMPC by the methods), 20 mM Tris-HCl pH 8.0, 150 mM NaCl; CRYOARM200, K2 Summit; 3.9 Å
[4] = biological target: B2; test: cryo-EM structure; holo V/A-ATPase (His3 tag on the c subunit) in nanodiscs (MSP1E3D1, POPC), 20 mM Tris-HCl pH 8.0, 150 mM NaCl, 2 mM MgCl2; Titan Krios, Falcon II; rotational state 1, 3.6 Å overall, 3.5 Å focused map of A3B3DFE2G2dasol; conditions: both partners purified

Binder: B1
- binding result [1]: binds

Binder: B2
- binding result [2]: binds

B3: c subunit of the Thermus thermophilus V/A-ATPase (c12 rotor ring) (natural protein)
chain: AEEAAASGGLDRGLIAVGMGLAVGLAALGTGVAQARIGAAGVGAIAEDRSNFGTALIFLLLPETLVIFGLLIAFILNGRL
notes: c subunit (subunit K/L, proteolipid) of the V/A-ATPase of Thermus thermophilus, strain HB8; chains Y and Z of the model are named in the text; Stands as a ring of twelve copies in Vo; also called c12 ring; c-ring; not shown: His3, C-terminal, kept; copies: 12
- stoichiometry N [3]: 12

- binding result [4]: binds
B4: F subunit of the Thermus thermophilus V/A-ATPase (natural protein)
chain: MAVIADPETAQGFRLAGLEGYGASSAEEAQSLLETLVERGGYALVAVDEALLPDPERAVERLMRGRDLPVLLPIAGLKEAFQGHDVEGYMRELVRKTIGFDIKL
notes: F subunit (central shaft) of the V/A-ATPase of Thermus thermophilus, strain HB8; also called subunit F; source: T. thermophilus membranes, V/A-ATPase purified (Ni-NTA by the His3 tag on the c-subunit, Resource Q), in nanodiscs
